As usually defined, the Kd is the free concentration of one partner at which half of the binding sites on the other are occupied at equilibrium, for simple one-to-one binding.

Consider two molecules from patent US20110028686A1 (published 2011).

Where two headings read alike, the source gives them in different places. Square brackets hold non-standard residues; d marks the D form. Ends that are not written are not given here. pS = N[C@@H](COP(=O)(O)O)C(=O)O

In experiment [1] the target is T1, calmodulin (Sigma) (UniProt P62157 2-149). Nature of the experiment: FP with calmodulin (text value; Table 2 prints 52 ± 12).
For experiment [2], the target named is T2, CBP KIX, wild type (Example 20) (UniProt P45481 586-665, limits assumed).
T2 construct: domain: KIX; also called wild type CBP KIX; CBP MX
T2 sequence (P45481 586-665 limits assumed): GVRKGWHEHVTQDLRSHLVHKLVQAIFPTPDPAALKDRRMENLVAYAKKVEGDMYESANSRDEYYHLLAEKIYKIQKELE
Nature of the experiment: FP, fluorescein-labelled PPKID4^P titrated with CBP KIX.

The target in experiment [3] is T3, CBP KIX Y658A (UniProt P45481 586-665, limits assumed).
T3 construct: domain: KIX
T3 sequence (P45481 586-665 Y658A limits assumed): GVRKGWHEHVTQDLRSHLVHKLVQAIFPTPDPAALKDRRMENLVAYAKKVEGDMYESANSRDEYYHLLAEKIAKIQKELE
Nature of the experiment: FP with CBP KIX variant (text value; Table 3 prints 3.9 ± 0.3).

Experiment [4] has as its target T4, HisKIX (UniProt P45481 586-672).
T4 construct: range 586-672; the residue numbers fit mouse CBP; also called His-tagged CBP KIX domain; CBP KIX; not shown: amino-terminal hexahistidine tag and linker of pET15b
Kind of experiment: FP, fluorescein-labelled peptide titrated with HisKIX, 25 C.

Experiment [5] has as its target T4, HisKIX. Described as above. This is another data set of the same source.
Experiment [6] concerns the target T2, CBP KIX, wild type (Example 20). Nature of the experiment: FP, 25 nM fluorescein-labelled ligand titrated with CBP KIX, 25 C.
In experiment [7] the target is T1, calmodulin (Sigma). Kind of experiment: FP, 50 nM fluorescein-labelled peptide titrated with calmodulin, 25 C.
Experiment [8] has as its target T3, CBP KIX Y658A. Nature of the experiment: FP, 25 nM fluorescein-labelled ligand titrated with CBP KIX variant, 25 C.
The target of the next experiment is T5, CBP KIX Y658F (UniProt P45481 586-665, limits assumed).
T5 construct: domain: KIX
T5 sequence (P45481 586-665 Y658F limits assumed): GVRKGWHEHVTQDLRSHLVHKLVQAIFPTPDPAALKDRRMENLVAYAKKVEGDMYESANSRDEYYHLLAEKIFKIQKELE
The experiment is described as above.

For another experiment, the target named is T6, CBP KIX K662A (UniProt P45481 586-665, limits assumed).
T6 construct: domain: KIX
T6 sequence (P45481 586-665 K662A limits assumed): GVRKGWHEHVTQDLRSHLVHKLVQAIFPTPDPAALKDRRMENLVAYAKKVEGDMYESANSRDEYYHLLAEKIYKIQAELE
The experiment is described as above.

For experiment [9], the target named is T7, CBP KIX Y650A (Example 20) (UniProt P45481 586-665, limits assumed).
T7 construct: domain: KIX
T7 sequence (P45481 586-665 Y650A limits assumed): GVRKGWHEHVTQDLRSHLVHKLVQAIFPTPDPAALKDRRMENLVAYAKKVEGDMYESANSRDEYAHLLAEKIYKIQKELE
The description is as above.

In a further experiment the target is T8, CBP KIX L603A (UniProt P45481 586-665, limits assumed).
T8 construct: domain: KIX
T8 sequence (P45481 586-665 L603A limits assumed): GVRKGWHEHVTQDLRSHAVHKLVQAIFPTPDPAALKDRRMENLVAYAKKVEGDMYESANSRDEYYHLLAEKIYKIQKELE
Described as above.

Another experiment has as its target T9, CBP KIX LL652-3AA (UniProt P45481 586-665, limits assumed).
T9 construct: domain: KIX
The description is as above.

A further experiment has as its target T10, CBP KIX K606A (UniProt P45481 586-665, limits assumed).
T10 construct: domain: KIX
Described as above.

Another experiment deals with T11, CBP KIX I657A (UniProt P45481 586-665, limits assumed).
T11 construct: domain: KIX; also called 1657A
T11 sequence (P45481 586-665 I657A limits assumed): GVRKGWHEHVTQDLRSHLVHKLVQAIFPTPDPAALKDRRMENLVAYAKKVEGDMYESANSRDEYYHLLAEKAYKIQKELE
The experiment is described as above.

Another experiment concerns the target T12, CBP KIX Q661A (UniProt P45481 586-665, limits assumed).
T12 construct: domain: KIX
The experiment is described as above.

Another experiment addresses T13, CBP KIX E655A (UniProt P45481 586-665, limits assumed).
T13 construct: domain: KIX
The description is as above.

For the next experiment, the target named is T14, CBP KIX I660A (UniProt P45481 586-665, limits assumed).
T14 construct: domain: KIX; also called 1660A
T14 sequence (P45481 586-665 I660A limits assumed): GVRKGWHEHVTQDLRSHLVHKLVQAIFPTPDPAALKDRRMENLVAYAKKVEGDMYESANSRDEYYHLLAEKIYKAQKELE
The experiment is described as above.

Experiment [10] has as its target carbonic anhydrase II (Sigma). Nature of the experiment: FP, 50 nM fluorescein-labelled peptide titrated with carbonic anhydrase II, 25 C.
For experiment [11], the target named is T15, Human recombinant Bcl-2 (1-205), soluble GST-fusion (Santa Cruz Biotechnology) (human, UniProt P10415 1-205).
T15 construct: Bought; also called GST-Bcl-2; not shown: glutathione S-transferase (GST) fusion partner
T15 sequence (P10415 1-205): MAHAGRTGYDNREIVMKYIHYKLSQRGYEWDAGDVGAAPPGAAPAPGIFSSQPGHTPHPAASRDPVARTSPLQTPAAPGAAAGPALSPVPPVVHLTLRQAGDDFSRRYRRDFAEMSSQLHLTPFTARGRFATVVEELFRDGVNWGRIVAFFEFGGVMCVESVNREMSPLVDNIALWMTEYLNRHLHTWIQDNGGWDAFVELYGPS
Kind of experiment: fluorescence emission titration with Bcl-2.

Experiment [12] has as its target carbonic anhydrase II (Sigma). Kind of experiment: fluorescence emission titration, fluorescein-labelled peptide + carbonic anhydrase II, PBS.
Experiment [13] concerns the target T15, Human recombinant Bcl-2 (1-205), …. Kind of experiment: fluorescence emission titration, fluorescein-labelled peptide + serially diluted Bcl-2, 4 C, PBS.
Experiment [14] has as its target T1, calmodulin (Sigma). Nature of the experiment: fluorescence emission titration, fluorescein-labelled peptide + calmodulin (HEPES, KCl, CaCl2 buffer).

T4 sequence (P45481 586-672): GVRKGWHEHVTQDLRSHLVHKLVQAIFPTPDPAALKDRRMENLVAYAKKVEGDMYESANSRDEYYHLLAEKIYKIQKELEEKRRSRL
Chain of carbonic anhydrase II (Sigma) (chain, as listed by the source): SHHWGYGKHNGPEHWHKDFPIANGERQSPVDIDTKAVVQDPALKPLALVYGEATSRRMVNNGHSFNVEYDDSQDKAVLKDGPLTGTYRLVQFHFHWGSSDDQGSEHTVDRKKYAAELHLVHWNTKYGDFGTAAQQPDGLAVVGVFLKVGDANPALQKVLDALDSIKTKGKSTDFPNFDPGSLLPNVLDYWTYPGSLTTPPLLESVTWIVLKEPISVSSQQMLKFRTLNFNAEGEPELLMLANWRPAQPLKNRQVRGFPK
T13 sequence (P45481 586-665 E655A limits assumed): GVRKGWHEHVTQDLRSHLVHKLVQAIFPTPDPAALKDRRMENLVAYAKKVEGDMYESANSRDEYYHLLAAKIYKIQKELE
T10 sequence (P45481 586-665 K606A limits assumed): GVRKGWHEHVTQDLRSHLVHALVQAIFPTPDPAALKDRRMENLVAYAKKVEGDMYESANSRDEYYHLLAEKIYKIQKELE
T12 sequence (P45481 586-665 Q661A limits assumed): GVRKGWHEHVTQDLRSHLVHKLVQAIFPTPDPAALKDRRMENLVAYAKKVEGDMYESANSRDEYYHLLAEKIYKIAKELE
T9 sequence (P45481 other isoform, or with tags, fused parts or gaps limits assumed): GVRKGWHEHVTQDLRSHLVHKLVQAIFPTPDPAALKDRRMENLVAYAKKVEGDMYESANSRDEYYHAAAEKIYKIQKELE

Consider GPSQPTYPGDDAPVRRL[pS]FFYILLDLYLDAPGVC(acetamidofluorescein)-NH2 (designed binder, also called PPKID4 (phosphorylated)) [PPKID4^P], for which the equilibrium dissociation constant (Kd) with calmodulin (Sigma) [1] came out at 51 µM; in experiment [2] it was 0.61 µM; with CBP KIX Y658A [3], 4.1 µM; with HisKIX [4], 0.515 µM; in the experiment with HisKIX [5], 0.515 µM; in [6], 0.61 µM. Besides, the Kd with calmodulin (Sigma) [7] was determined as 52 µM; with CBP KIX Y658A [8], 3.9 µM; in the experiment with CBP KIX Y658F, 4.1 µM; with CBP KIX K662A, 3.9 µM; in [9], 3 µM; with CBP KIX L603A it was 3.4 µM. The Kd with CBP KIX LL652-3AA was determined as 2.9 µM; with CBP KIX K606A, 3.1 µM; with CBP KIX I657A, 2.7 µM; with CBP KIX Q661A, 1.1 µM; in the experiment with CBP KIX E655A it was 0.54 µM; with CBP KIX I660A, 1.1 µM. This molecule yielded a Kd in experiment [10] of 106 µM.

B1: p4099 (designed binder)
peptide: GPSQPTYPGDDAPVEDLIRFVGRLLAYFGDTINRYC(5‑iodoacetamidofluorescein)-NH2
notes: also called p4121-flu (labelled form, by order and mass)
Consider B1, for which the “fold better binding than p4101” value in experiment [11] is ~2 fold. Also, the Kd in experiment [12] is 8.6 µM; in experiment [13], 0.352 µM; with calmodulin (Sigma) [14] it was 25 µM.
